In US20240270840A1 (NECTIN THERAPEUTICS, published 2024):

T1: Human CD112R expressed on cells (human, UniProt Q6DKI7 1-326)
T1 construct: whole, on cells; also called HuCD112R; hCD112R
T1 sequence (looked up): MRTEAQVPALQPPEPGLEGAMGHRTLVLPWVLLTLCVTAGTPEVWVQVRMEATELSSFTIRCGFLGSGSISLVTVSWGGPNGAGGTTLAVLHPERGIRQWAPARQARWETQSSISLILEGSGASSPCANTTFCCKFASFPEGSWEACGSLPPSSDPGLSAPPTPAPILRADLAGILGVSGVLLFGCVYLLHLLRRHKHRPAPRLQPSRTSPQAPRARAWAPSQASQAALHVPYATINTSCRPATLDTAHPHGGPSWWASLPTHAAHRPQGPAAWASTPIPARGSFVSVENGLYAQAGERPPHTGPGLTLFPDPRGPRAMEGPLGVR

T2: Human CD112R (PVRIG) (human, UniProt Q6DKI7 41-171, limits assumed)
T2 sequence (looked up): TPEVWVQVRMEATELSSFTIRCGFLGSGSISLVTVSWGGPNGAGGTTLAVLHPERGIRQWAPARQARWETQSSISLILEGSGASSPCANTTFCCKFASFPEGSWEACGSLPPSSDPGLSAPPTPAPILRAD


Tests used:
[1] = molecular target: T1, Human CD112R expressed on cells; test: FACS, chimeric mAb 99-0.4 nM in three-fold dilutions on HEK 293T cells overexpressing CD112R, anti-human-APC 1:200
Protocol: For detection, anti-human-APC antibody (Ab) was used at 1:200 dilution, and cell binding was analyzed by FACS. FIG. 3C—8866 cells ([…]) overexpressing human Nectin-2 were incubated with 10 μg/ml of CD112R-Fc in the presence of isotype control Ab, or with the indicated clones at 4 μg/ml. Bound CD112R-Fc was detected by anti-mouse-Dy-647 1:250 dilution and analyzed by FACS. The blocking of CD112R binding exceeded 95% by all the variants.
Binding was analyzed by FACS and used for calculation of EC-50 values. […] The N31S variant, engineered to remove an N-Linked glycosylation motif at the CDR1 of the heavy chain, had improved (sub-nM) binding to human CD112R in this cell-based assay.

[2] = molecular target: T1, Human CD112R expressed on cells; test: flow cytometry; max binding on human NK cells against max binding on cynomolgus CD8 T cells
Protocol: (§1) The humanized mAbs were tested for binding of endogenous and overexpressed human and cynomolgus CD112R.
(§2) Table 7 summarizes EC50 values calculated based on the binding curves of selected humanized mAbs to cynomolgus CD8 T cells and human NK cells, both cells expressing endogenous CD112R of the relevant species. Assay was performed as in Table 6. An anti-CD112R mAb disclosed in WO2016134333 was used for comparison. All the humanized variants have a complete cross-reactivity between the human and cynomolgus targets.

[3] = molecular target: T1, Human CD112R expressed on cells; test: flow cytometry competition on 293T cells overexpressing CD112R; antibody 40-0.018 nM; competitor hNectin-2-mIgG2a at 125 nM
Protocol: The humanized anti-CD112R antibodies are potent blockers of CD112R—Nectin-2 interactions. […] The antibodies were added in a range of concentrations of 40-0.018 nM in a series of three-fold dilutions. The amount of bound hNectin-2-mIgG2a was detected by anti-mouse antibodies fluorescently labeled with Dy-light 647 (115-606-071 Jackson immunoresearch) and analyzed by FACS.

[4] = molecular target: Cynomolgus monkey (Macaca fascicularis) CD112R expressed on cells (cynomolgus monkey (Macaca fascicularis)); test: flow cytometry on 293T cells expressing cynomolgus CD112R; 99-0.05 nM, three-fold dilutions
[5] = molecular target: Cynomolgus monkey (Macaca fascicularis) CD112R expressed on cells (cynomolgus monkey (Macaca fascicularis)); test: flow cytometry; EC-50 on cynomolgus CD8 T cells against EC-50 on human NK cells
[6] = molecular target: Cynomolgus monkey (Macaca fascicularis) CD112R expressed on cells (cynomolgus monkey (Macaca fascicularis)); test: flow cytometry on 293T cells; EC50 on cynomolgus CD112R against EC50 on human CD112R
[7] = molecular target: T1, Human CD112R expressed on cells; test: flow cytometry on human NK cells (endogenous CD112R)
Protocol: as §1, §2

[8] = molecular target: T1, Human CD112R expressed on cells; test: flow cytometry on 293T cells expressing human CD112R; 99-0.05 nM, three-fold dilutions
Protocol: as §1

[9] = molecular target: T1, Human CD112R expressed on cells; test: flow cytometry on human NK cells (endogenous CD112R); remark: listed apart in the source
[10] = molecular target: T1, Human CD112R expressed on cells; test: flow cytometry EC-50 on human NK cells, against the reference Ab (member assigned from Table 7)
Human CD112R (PVRIG) [11] = molecular target: T2, Human CD112R (PVRIG); test: SPR (Biacore); purified full antibody; * limit of the Biacore instrument sensitivity
[12] = molecular target: Cynomolgus monkey (Macaca fascicularis) CD112R expressed on cells (cynomolgus monkey (Macaca fascicularis)); test: flow cytometry on cynomolgus CD8 T cells (endogenous CD112R)
Human CD112R (PVRIG) [13] = molecular target: T2, Human CD112R (PVRIG); test: SPR (Biacore); purified full antibody

| Binder | Ratio Hu/Cyno (max binding) [2] | EC50 [3] | EC-90 [3] | EC50 [4] | Ratio Cyno/Hu (EC-50) [5] | Ratio Cyno/Hu (EC50) [6] | EC50 [7] | EC50 [8] | Max binding Hu (MFI a.u - background) [9] | fold improved binding compared to the reference Ab [10] | Kd (Human CD112R (PVRIG) [11]) | Relative Kd (against VH0K0 N28T) (Human CD112R (PVRIG) [11]) | koff (Human CD112R (PVRIG) [11]) | kon (Human CD112R (PVRIG) [11]) | EC50 [12] | Max binding Cyno (MFI a.u - background) [12] | Kd (Human CD112R (PVRIG) [13]) | Relative Kd (against VH0K0 N28T) (Human CD112R (PVRIG) [13]) | koff (Human CD112R (PVRIG) [13]) | kon (Human CD112R (PVRIG) [13]) | further results |
| --- | --- | --- | --- | --- | --- | --- | --- | --- | --- | --- | --- | --- | --- | --- | --- | --- | --- | --- | --- | --- | --- |
| Clone 15 (antibody, V domains shown) VH: QVQLQQPGAELVKPGTSVKLSCKASGYNFTSYWINWVKLRPGQGLEWIGDIFPGSYSPNYNKKFKRKATLTVDTSSSTAYMQLSSLASEDSALYYCAGGYFDVWGAGTTVTVSS VL: DIVMTQSPSSLSVSAGEKVTMSCKSSQSLLNSGSQKNYLAWYQQKPGQPPKLLIYGASTRESGVPDRFTGSGSGTDFTLTISFVQAEDLAVYYCQNDHSYPYTFGGGTKLEIK | – | – | – | – | – | – | – | – | – | – | – | – | – | – | – | – | – | – | – | – | EC50 [1]: 1290 pM |
| H11K1 (full humanized antibody) (antibody, V domains shown, Humanized full antibody, human IgG1; also called VH11K1) VH: QVQLVQSGAEVKKPGSSVKVSCKASGYTFTSYWINWVRQAPGQGLEWIGDIYPGSYIPNYNEKFKNRATLTVDTSASTAYMELSSLRSEDTAVYYCAGGYFDVWGQGTTVTVSS VL: DIVMTQSPDSLSVSLGERATINCKSSQSLLSSGNQKNYLAWYQQKPGQPPKLLIYGASTRESGVPDRFTGSGSGTDFTLTISSLQAEDVAVYYCQNDHSYPYTFGQGTKLEIK | 1.2 | 290 pM | 10.7 nM | 720 pM | 1.61 | 2.43 | 910 pM | 300 pM | 982 MFI a.u | > 2 fold | 16.7 pM | 0.13 | 4.79e-06 s⁻¹ | 287000 M⁻¹ s⁻¹ | 1460 pM | 820 MFI a.u | – | – | – | – | – |
| VH10K3 (full humanized antibody) (antibody, V domains shown, Humanized full antibody, human IgG1) VH: QVQLVQSGAEVKKPGSSVKVSCKASGYTFTSYWINWVRQAPGQGLEWIGDIYPGSYIPNYNEKFKNRATLTVDTSASTAYMELSSLASEDTALYYCAGGYFDVWGQGTTVTVSS VL: DIVMTQSPDSLAVSLGERATINCKSSQSLLSSGNQKNYLAWYQQKPGQPPKLLIYGASTRESGVPDRFSGSGSGTDFTLTISSLQAEDVAVYYCQNDHSYPYTFGQGTKLEIK | 1.06 | – | – | 500 pM | 1.81 | 1.67 | 770 pM | 300 pM | 988 MFI a.u | > 2 fold | – | – | – | – | 1390 pM | 933 MFI a.u | 121 pM | 0.96 | 4.36e-05 s⁻¹ | 361000 M⁻¹ s⁻¹ | – |
| VH10K2 (full humanized antibody) (antibody, V domains shown, Humanized full antibody, human IgG1) VH: QVQLVQSGAEVKKPGSSVKVSCKASGYTFTSYWINWVRQAPGQGLEWIGDIYPGSYIPNYNEKFKNRATLTVDTSASTAYMELSSLASEDTALYYCAGGYFDVWGQGTTVTVSS VL: DIVMTQSPDSLAVSLGERATINCKSSQSLLSSGNQKNYLAWYQQKPGQPPKLLIYGASTRESGVPDRFTGSGSGTDFTLTISSLQAEDVAVYYCQNDHSYPYTFGQGTKLEIK | 1.07 | – | – | 420 pM | 1.69 | 1.07 | 860 pM | 400 pM | 975 MFI a.u | > 2 fold | – | – | – | – | 1450 pM | 914 MFI a.u | 119 pM | 0.94 | 4.27e-05 s⁻¹ | 359000 M⁻¹ s⁻¹ | – |
| H11K3 (full humanized antibody) (antibody, V domains shown, Humanized full antibody comprising hIgG1 Fc; also called VH11K3) VH: QVQLVQSGAEVKKPGSSVKVSCKASGYTFTSYWINWVRQAPGQGLEWIGDIYPGSYIPNYNEKFKNRATLTVDTSASTAYMELSSLRSEDTAVYYCAGGYFDVWGQGTTVTVSS VL: DIVMTQSPDSLAVSLGERATINCKSSQSLLSSGNQKNYLAWYQQKPGQPPKLLIYGASTRESGVPDRFSGSGSGTDFTLTISSLQAEDVAVYYCQNDHSYPYTFGQGTKLEIK | 1.21 | 260 pM | 9.6 nM | 600 pM | 1.14 | 1.93 | 1110 pM | 310 pM | 1000 MFI a.u | – | 78.8 pM | 0.63 | 2.42e-05 s⁻¹ | 307000 M⁻¹ s⁻¹ | 1270 pM | 833 MFI a.u | – | – | – | – | – |
